Data on six molecules can be found in US20190353642A1 (WUHAN INSTITUTE OF VIROLOGY CHINESE ACADEMY OF SCIENCES, published 2019).

To fix the notation:
B2: HA-tagged full length NS5A (other)
chain: SGSWLRDVWDWVCTILTDFKNWLTSKLFPKLPGLPFISCQKGYKGVWAGTGIMTTRCPCGANISGNVRLGSMRITGPKTCMNTWQGTFPINCYTEGQCAPKPPTNYKTAIWRVAASEYAEVTQHGSYSYVTGLTTDNLKIPCQLPSPEFFSWVDGVQIHRFAPTPKPFFRDEVSFCVGLNSYAVGSQLPCEPEPDADVLRSMLTDPPHITAETAARRLARGSPPSEASSSVSQLSAPSLRATCTTHSNTYDVDMVDANLLMEGGVAQTEPESRVPVLDFLEPMAEEESDLEPSIPSECMLPRSGFPRALPAWARPDYNPPLVESWRRPDYQPPTVAGCALPPPKKAPTPPPRRRRTVGLSESTISEALQQLAIKTFGQPPSSGDAGSSTGAGAAESGGPTSPGEPAPSETGSASSMPPLEGEPGDPDLESDQVELQPPPQGGGVAPGSGSGSWSTCSEEDDTTVCC
notes: also called HA-tagged NS5A; not shown: HA tag from vector pRK-7 HA

In assay [1] the target is T1, HA-tagged CD2AP (pRK-HA-CD2AP), human, full length (human, UniProt Q9Y5K6 1-639).
T1 construct: Over-expressed in HEK 293T cells and tested in cell lysate by co-IP; also called CD2 associated protein; not shown: HA tag from vector pRK-7 HA
The assay is described as follows: co-IP with anti-flag antibody from HEK 293T cells over-expressing both, blot with anti-HA.

Assay [2] has as its target T2, flag-tagged truncated CD2AP 60-639 aa (human, UniProt Q9Y5K6 60-639).
T2 construct: No first SH3 domain, all other CD2AP domains kept; also called CD2AP lacking the first SH3 domain; not shown: Flag tag
Put plainly: co-IP with anti-flag antibody, HEK 293T cells, blot with anti-HA.

Assay [3] concerns the target T3, flag-tagged CD2AP 1-639 aa (full length) (human, UniProt Q9Y5K6 1-639).
T3 construct: also called Full length CD2AP; not shown: Flag tag
The description is as above.

Assay [4] deals with T4, CD2AP, endogenous, in Huh7.5.1 cells (human, UniProt Q9Y5K6 1-639).
T4 construct: Endogenous protein of human hepatoma Huh7.5.1 cells, in cell lysate
Put plainly: endogenous co-IP, both directions, Huh7.5.1 cells infected with HCV JFH1.

Assay [5] deals with B2. Put plainly: co-IP with anti-flag antibody, HEK 293T cells, blot with anti-HA.

T2 sequence (Q9Y5K6 60-639): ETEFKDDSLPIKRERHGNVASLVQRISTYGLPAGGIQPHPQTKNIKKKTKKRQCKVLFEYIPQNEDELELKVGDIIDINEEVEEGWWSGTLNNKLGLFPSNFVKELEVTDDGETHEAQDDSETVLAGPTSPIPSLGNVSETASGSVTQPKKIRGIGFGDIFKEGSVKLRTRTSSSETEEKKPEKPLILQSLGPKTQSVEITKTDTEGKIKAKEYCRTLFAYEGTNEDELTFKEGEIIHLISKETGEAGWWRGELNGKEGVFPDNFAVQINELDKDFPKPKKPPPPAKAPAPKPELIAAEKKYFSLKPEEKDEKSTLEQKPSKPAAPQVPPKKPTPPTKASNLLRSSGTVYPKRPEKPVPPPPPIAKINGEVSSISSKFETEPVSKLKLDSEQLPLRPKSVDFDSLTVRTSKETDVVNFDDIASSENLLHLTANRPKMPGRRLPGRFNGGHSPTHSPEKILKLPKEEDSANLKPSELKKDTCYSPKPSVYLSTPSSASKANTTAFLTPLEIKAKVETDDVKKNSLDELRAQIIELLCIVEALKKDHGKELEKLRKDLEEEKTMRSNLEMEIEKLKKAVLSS

B1: Flag-tagged NS5A derived from HCV genotype 2a strain JFH1 (pRK-Flag-NS5A), full length (other)
chain: SGSWLRDVWDWVCTILTDFKNWLTSKLFPKLPGLPFISCQKGYKGVWAGTGIMTTRCPCGANISGNVRLGSMRITGPKTCMNTWQGTFPINCYTEGQCAPKPPTNYKTAIWRVAASEYAEVTQHGSYSYVTGLTTDNLKIPCQLPSPEFFSWVDGVQIHRFAPTPKPFFRDEVSFCVGLNSYAVGSQLPCEPEPDADVLRSMLTDPPHITAETAARRLARGSPPSEASSSVSQLSAPSLRATCTTHSNTYDVDMVDANLLMEGGVAQTEPESRVPVLDFLEPMAEEESDLEPSIPSECMLPRSGFPRALPAWARPDYNPPLVESWRRPDYQPPTVAGCALPPPKKAPTPPPRRRRTVGLSESTISEALQQLAIKTFGQPPSSGDAGSSTGAGAAESGGPTSPGEPAPSETGSASSMPPLEGEPGDPDLESDQVELQPPPQGGGVAPGSGSGSWSTCSEEDDTTVCC
notes: not shown: Flag tag from vector pRK-7 Flag
For the molecule B1, the binding result in assay [1] is listed as “binds”. For the molecule B2, the binding result in assay [2] and in assay [3] was “binds” each time.

B3: NS5A of HCV JFH1 in infected Huh7.5.1 cells (other)
chain: SGSWLRDVWDWVCTILTDFKNWLTSKLFPKLPGLPFISCQKGYKGVWAGTGIMTTRCPCGANISGNVRLGSMRITGPKTCMNTWQGTFPINCYTEGQCAPKPPTNYKTAIWRVAASEYAEVTQHGSYSYVTGLTTDNLKIPCQLPSPEFFSWVDGVQIHRFAPTPKPFFRDEVSFCVGLNSYAVGSQLPCEPEPDADVLRSMLTDPPHITAETAARRLARGSPPSEASSSVSQLSAPSLRATCTTHSNTYDVDMVDANLLMEGGVAQTEPESRVPVLDFLEPMAEEESDLEPSIPSECMLPRSGFPRALPAWARPDYNPPLVESWRRPDYQPPTVAGCALPPPKKAPTPPPRRRRTVGLSESTISEALQQLAIKTFGQPPSSGDAGSSTGAGAAESGGPTSPGEPAPSETGSASSMPPLEGEPGDPDLESDQVELQPPPQGGGVAPGSGSGSWSTCSEEDDTTVCC
notes: also called endogenous NS5A
In the case of B3, the binding result in assay [4] is reported as “binds”.

B4: flag-tagged truncated CD2AP 1-330 aa (other)
chain: MVDYIVEYDYDAVHDDELTIRVGEIIRNVKKLQEEGWLEGELNGRRGMFPDNFVKEIKRETEFKDDSLPIKRERHGNVASLVQRISTYGLPAGGIQPHPQTKNIKKKTKKRQCKVLFEYIPQNEDELELKVGDIIDINEEVEEGWWSGTLNNKLGLFPSNFVKELEVTDDGETHEAQDDSETVLAGPTSPIPSLGNVSETASGSVTQPKKIRGIGFGDIFKEGSVKLRTRTSSSETEEKKPEKPLILQSLGPKTQSVEITKTDTEGKIKAKEYCRTLFAYEGTNEDELTFKEGEIIHLISKETGEAGWWRGELNGKEGVFPDNFAVQINE
notes: Contains all three SH3 domains; not shown: Flag tag
Regarding B4, the binding result in assay [5] is given as “binds”.

B5: flag-tagged truncated CD2AP 1-107 aa (other)
chain: MVDYIVEYDYDAVHDDELTIRVGEIIRNVKKLQEEGWLEGELNGRRGMFPDNFVKEIKRETEFKDDSLPIKRERHGNVASLVQRISTYGLPAGGIQPHPQTKNIKKK
notes: Contains the first SH3 domain; not shown: Flag tag
B5: in assay [5], the binding result is on record as “binds”.

B6: flag-tagged truncated CD2AP 1-268 aa (other)
chain: MVDYIVEYDYDAVHDDELTIRVGEIIRNVKKLQEEGWLEGELNGRRGMFPDNFVKEIKRETEFKDDSLPIKRERHGNVASLVQRISTYGLPAGGIQPHPQTKNIKKKTKKRQCKVLFEYIPQNEDELELKVGDIIDINEEVEEGWWSGTLNNKLGLFPSNFVKELEVTDDGETHEAQDDSETVLAGPTSPIPSLGNVSETASGSVTQPKKIRGIGFGDIFKEGSVKLRTRTSSSETEEKKPEKPLILQSLGPKTQSVEITKTDTEGKI
notes: not shown: Flag tag
As for B6, in assay [5], the binding result was “binds”.
